These results are taken from patent publication US20090162848A1, “Noxin, a novel stress-induced gene involved in cell cycle and apoptosis” (COLD SPRING HARBOR LABORATORY, priority 2007, published 2009).

Test [1] concerns MEFs from p53-deficient mice. In words: DNA synthesis in p53-deficient MEFs expressing noxin. The class given is cell-based, mouse. As to the method:
Noxin action was also analyzed in p53-deficient MEFs.

The subject of test [2] is NIH3T3 cells. In words: BrdU incorporation (DNA synthesis) in transfected versus untransfected NIH3T3 cells. The settings on record: BrdU labeling for 24 h. The class given is cell-based, mouse. The method, then: In addition, constructs coding for cyan fluorescent protein with a nuclear localization signal (CFP-nuc), yellow fluorescent protein fused to actin (YFP-actin), or vector construct alone were used as controls. Cells were then labeled with BrdU for 24 h and analyzed cells in situ by immunocytochemistry for BrdU and noxin (or other listed proteins) (FIG. 11A-C). In the figures, signals from anti-FLAG antibodies are seen in red; anti-BrdU antibodies are green; Hoechst 33342 (blue) was used for nuclear counter-staining. […] Recombinant protein was detected on a Western blot using the anti-FLAG antibody.

The subject of another test is p53. The experiment in a line: p53 levels in transfected cells by immunocytochemistry and flow cytometry. Type of test: cell-based. As to the method: The cells were labeled with […] (BrdU) (10 μM) and incubating for the time periods indicated. The cells were collected from plates by trypsin digestion were suspended in saline and fixed with 70% ethanol. After washing with PBS containing 0.05% BSA, 1×10^6 cells were incubated with FITC-conjugated anti-BrdU antibody (Pharmingen, 1:500) for 1 hr, suspended in PBS-BSA with 5 μg/ml propidium iodide (PI) and 20 μg/ml RNase A, and incubated further for 30 min at room temperature. For the bivariate cell cycle analysis, cells were analyzed using LSRII flow cytometer ([…]). […] Cells were analyzed for PE, FITC, and GFP fluorescence by flow cytometry.
Cells were transfected with pFLAG-noxin- or GFP-expressing plasmids and the levels of p53 were determined using immunocytochemistry and flow cytometry. […] 13a-c: which were stained with anti-FLAG and anti-p53 primary antibodies and ALEXA Fluor 596- and 488-conjugated secondary antibodies, respectively. […] 14a-d: Cells transfected with pFLAG-noxin (upper panels) and pEGFP (taken as control; lower panels) that were stained with anti-FLAG and anti-p53 primary antibodies, and PE- and FITC-conjugated secondary antibodies. Then Noxin-FLAG- or EGFP-negative (left panels) and positive (right panels) cells were analyzed for the amount of p53 protein.
(In flow cytometry, cells or beads pass a laser one at a time.)

Test [3] has as its system NIH3T3 cells. The experiment in a line: Cell cycle distribution of pFLAG-noxin transfected cells by flow cytometry. Type of test: cell-based, mouse. The settings on record: anti-FLAG staining, DNA content. The method, then: After transfection with pFLAG-noxin or pcDNA3 vector, cell division was arrested with three different treatments (nocodazole, aphidicolin, or low concentration of serum). Cells were stained with anti-FLAG antibody and FITC-conjugated anti-mouse IgG antibody after permeabilization. Cell cycle distributions of untransfected and transfected cells were analyzed by DAPI staining and flow cytometry.

B1: noxin: noxin tagged with the FLAG epitope at its N-terminus, expressed from plasmid pFLAG-noxin (mouse, SEQ ID NO: 2) (protein)
chain: MNKRRKFLFASVLAVQNSNFIYPSCQRCFSKIILESKRFTCPKCGSSGDTGSTNYRYKLSLKVAESSKLFFITVFGSCLDTFFGLTATGLHRYLEDSIKNLETLDSGRTQSLLTTAVEKCFVGQSFVFGVTNFGDVCGHDSDSSNFQQPCCKHRGEVRTLVASQIILPSPHVKGFTVIAYLHPLLHKKPHCGSQEHSSQSLTSDDSDSDLNNIQGSGNTSWFSESSVGEDFFRYWEPSLELTSSDSQVTSSDDFPASKQIMASGTPNQNRHCISVSEVTSSKNCHDSLQSLWSLHSCMDKNNTTGKLGEELGLPSPVCNSCHESRLSDSHFFPSQMQEPFEEHNLECYSKAEKNDYSQYDIACYQHHEVNTTPILQQRSSAFSLSSLKPEETANPSQNSDSLIWDDLPLSESLNKFLAVVESEVAVTEIDAKNRKQGMDKSIDKCHKNYSRLSLTPWRNTRALNTSCFSLRSSQAMMKDSGKEALFSNCKSNSSPHIQKESKADKTEAAVSIAGSRSDISEDFLPDTCSSALFTSSKDREAFITQKRTSGVLQQRNEISCRPSTSISDCSDLRSRYFTGCGQKLHSGTKGKLAIQNCSKKYSDASDLHKLENKHRWPKKEDDNFTICRKLTYPLETLCSSPESINTSKEMPYRPSNNNLTPSSSGDHEGSYNASAGLFDYIAKDKDIGTEITKIPQDNLLPLEVPCTENYPINENRGQPSQKPSLQSISPSRYSRPRSQSDSECDFEESQDFVPCSQSTPVAGFHQRIHGLNGASKILPSIYSNHNANYKNRKNSPLTGQYQATSACSKNVKAFRQKPESPFVSSLTQANVFNHCPAAESLGNDVDEWVPPTTKKVFISDILGFRVMGLRKCLDLHYSPDPKELPRKKLIKVTHKTNI
modifications: left off: small tags and cut ends
For B1, in test [1], the “suppression of DNA synthesis” value was “effective”. Besides, in the test on NIH3T3 cells [2], the “fraction of BrdU-positive cells in transfected cells, % of the value for the untransfected cells” value was 24%. Moreover, in the test on p53, the “p53 levels in cells that received the gene” value is “increased”. Besides, the “cell cycle phase of cells expressing the transfected gene” value in the test with NIH3T3 cells [3] is reported as “arrested in G1 or early S phase”.
